Measurements from US20220389120A1.

Target: PD-1 (UniProt Q15116)
Assay: PD-1 blocking assay

Sequence of PD-1 (Q15116 25-167): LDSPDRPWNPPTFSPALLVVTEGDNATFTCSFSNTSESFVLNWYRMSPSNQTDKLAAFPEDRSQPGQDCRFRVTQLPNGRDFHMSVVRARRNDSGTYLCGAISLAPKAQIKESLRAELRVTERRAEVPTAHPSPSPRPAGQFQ

IC50: 0.282 nM
Substance: Keytruda
